This assay has as its target GST fused to the OCA2 N-terminal cytoplasmic domain, AA23 variant harboring the P99S mutation (human) (UniProt Q04671). Description: pull-down.
Sequence of UniProt Q04671 (Q04671 1-173 P99S): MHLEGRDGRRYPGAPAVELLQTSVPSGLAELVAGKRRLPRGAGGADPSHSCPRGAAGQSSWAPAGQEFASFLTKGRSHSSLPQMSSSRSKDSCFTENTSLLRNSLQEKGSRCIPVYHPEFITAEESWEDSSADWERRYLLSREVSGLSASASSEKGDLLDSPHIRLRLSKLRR

“AP-3 complex from MNT-1 human melanoma cell lysate (from UniProt O14617 1-1153; O00203 1-1094; Q92572 1-193)” came in with a percent bound relative to AA23 (% relative to AA23) of 30.1.

The values above are taken from article PMC3418312.
